Experiment [1] deals with T1, human PD-1-hFc (human, UniProt Q15116 25-170).
T1 construct: extracellular domain; Extracellular domain of human PD-1 fused to an hFc tag, made in house; not shown: hFc tag
As to the kind of experiment: competitive ELISA, coated PD-1-hFc, competitor PDL2-mFc. On the procedure:
(§1) The specific experimental steps were as follows: human PD-1-hFc was diluted to 1 μg/mL with CBS solution, coated on a 96-well ELISA plate (purchased from Guangzhou Jiete Bio) at 4° C. overnight. After washing, 100 μL of phosphate buffer (PBS) containing 2% BSA was used for blocking at 37° C. for 1 hour. […] After washing, a goat anti-mouse secondary antibody labeled with HRP diluted in phosphate buffer (PBS) containing 2% BSA in a ratio of 1:15000 was added, followed by incubating at room temperature for 1 hour. After washing, the TMB chromogen solution was used for developing, and the absorbance value was read using a microplate reader at 450 nm, and the data were imported into Graphprism to calculate ICs values.

For experiment [2], the target named is T2, PD-1 on Jurkat-PD-1-NFAT cells (UniProt Q15116 25-288, limits assumed). The experiment in a line: cell-based or functional assay.
Experiment [3] has as its target T1, human PD-1-hFc. As to the kind of experiment: competitive ELISA, coated PD-1-hFc, competitor PDL1-mFc. On the procedure:
as §1

Experiment [4] concerns the target T3, human PD-1-His (human, UniProt Q15116 25-170).
T3 construct: extracellular domain; not shown: His tag
As to the kind of experiment: BLI (Octet ForteBio), antibody on ProA biosensor, PD-1-His in solution.

Experiment [5] deals with T3, human PD-1-His. The experiment in a line: ELISA, coated human PD-1-his. On the procedure: (§2) To verify the affinity of the humanized PD-1 antibody to PD-1-His antigen, ELISA was employed. The specific experimental steps were as follows: human PD-1-his was diluted to 1 μg/mL with CBS solution, then coated on a 96-well ELISA plate (purchased from Guangzhou Jiete Bio) at 4° C. overnight. […] After washing, a goat anti-mouse secondary antibody (FC) labeled with horseradish peroxidase diluted in phosphate buffer (PBS) containing 2% BSA in a ratio of 1:15000 was added, followed by incubating at 37° C. for 1 hour. After washing, the TMB chromogen solution was used for developing, and the absorbance value was read using a microplate reader at 450 nm. The data were imported into Graphprism to calculate EC₅₀ values.

Experiment [6] concerns the target T1, human PD-1-hFc. The experiment in a line: competitive ELISA, coated human PD-1-hFc, competitor hPD-L2-mFc. On the procedure:
as §1

Experiment [7] concerns the target T3, human PD-1-His. The experiment in a line: BLI (Octet ForteBio), antibody on ProA biosensor, human PD-1-His in solution.
The target of experiment [8] is T4, monkey PD-1-hFc (monkey).
T4 construct: Extracellular domain of monkey PD-1 fused to an hFc tag, made in house; not shown: The hFc tag and any linker
T4 chain: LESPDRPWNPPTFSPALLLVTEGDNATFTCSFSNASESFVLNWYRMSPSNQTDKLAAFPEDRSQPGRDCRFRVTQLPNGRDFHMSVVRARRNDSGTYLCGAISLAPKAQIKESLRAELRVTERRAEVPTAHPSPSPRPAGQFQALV
The experiment in a line: ELISA, coated monkey PD-1-hFc. On the procedure: as §2, with “The” for “To verify the affinity of the humanized PD-1 antibody to PD-1-His antigen, ELISA was employed. The”, “PD-1-hFc and monkey PD-1-hFc antigens were” for “PD-1-his was”, “anti-human” for “anti-mouse”, “nm, and the” for “nm. The”

The target in experiment [9] is T2, PD-1 on Jurkat-PD-1-NFAT cells. The experiment in a line: cell-based or functional assay. This is another data set of the same source.
The target in experiment [10] is T1, human PD-1-hFc. As to the kind of experiment: competitive ELISA, coated human PD-1-hFc, competitor hPD-L1-mFc. The protocol: as §1
Experiment [11] concerns the target T5, full-length human PD-1 on CHO-hPD-1 cells (human, UniProt Q15116 25-288).
T5 construct: whole, on cells; also called PD-1 on the cell membrane surface of CHO-hPD-1
As to the kind of experiment: competitive FACS on CHO-hPD-1 cells, competitor PD-L1-mFc-Bio. The text has this: The data were imported into Graphprism to calculate IC₅₀ values.

The target in experiment [12] is T6, human PD-1-ECD-mFc (human; mouse, UniProt Q15116 25-170).
T6 construct: extracellular domain; Made in HEK293F cells; also called human PD-1-mFc; PD-1-mFc; not shown: mouse Fc (mFc) amino acids, AB097847.1
The experiment in a line: ELISA, coated antigen (column head: Human PD-1-mFc; text of Example 4.2: human PD-1-hFc). On the procedure: as §2, with “The” for “To verify the affinity of the humanized PD-1 antibody to PD-1-His antigen, ELISA was employed. The”, “PD-1-hFc and monkey PD-1-hFc antigens were” for “PD-1-his was”, “anti-human” for “anti-mouse”, “nm, and the” for “nm. The”

Experiment [13] deals with T3, human PD-1-His. As to the kind of experiment: BLI (Octet ForteBio), human PD-1-His.

B1: humanized antibody 35E6-HZ1 (antibody, human IgG4 S228P, kappa)
heavy: not shown
light: EIVLTQSPATLSLSPGERATLSCRASESVEYYGTNLMQWYQQKPGQPPRLLIYFASNVASGIPARFSGSGSGTDFTLTISSLEPEDFAVYFCQQSKKVPSTFGQGTKVEIKRTVAAPSVFIFPPSDEQLKSGTASVVCLLNNFYPREAKVQWKVDNALQSGNSQESVTEQDSKDSTYSLSSTLTLSKADYEKHKVYACEVTHQGLSSPVTKSFNRGEC
Turning to B1, the IC50 in experiment [1] was 1.15 nM. In addition, the “EC50 from the PD-1/PD-L1 luciferase reporter system” value in [2] was found to be 3.63 nM. The molecule further had an IC50 in [3] of 0.94 nM. For the same molecule, in [4], the Kd amounted to 1.31 nM, the koff was 0.000517 s⁻¹ and the kon came to 395000 M⁻¹ s⁻¹. In experiment [5], this molecule gave an EC50 of 0.3 nM.

B2: humanized antibody 29C6-HZ1 (antibody, human IgG4 S228P, kappa, V domains shown)
VH: QVQLVQSGAEVKKPGASVKVSCKTSGYTFTEYTIYWVRQAPGQGLEWIGGINPKNGATLYNQKFQGRVTLTVDKSTSTAYMELRSLRSDDTAVYYCVRDYHGNSHDSMDYWGQGTLVTVSS
VL: EIVLTQSPATLSLSPGERATLSCSASSSVSYMHWFQQKPGQAPRLWIYYTSNLASGVPARFSGSGSGTDYTLTISSLEPEDFAVYYCQQRSDYPPTFGGGTKVEIKR
Regarding B2, the figures for the IC50 in experiment [1] and in experiment [3] were 3.63 nM and 3.11 nM, respectively. This molecule also yielded an EC50 in [5] of 0.42 nM.

B3: humanized antibody 29C6-HZ2 (antibody, human IgG4 S228P, kappa, V domains shown)
VH: QVQLVQSGVEVKKPGASVKVSCKTSGYTFTEYTIYWVRQAPGQGLEWIGGINPKNGATLYNQKFKVRATLTVDKSTTTAYMELKSLQFDDTAVYYCVRDYHGNSHDSMDYWGQGTTVTVSS
VL: EIVLTQSPATLSLSPGERATLSCSASSSVSYMHWFQQKPGQAPRLLIYYTSNLASGVPARFSGSGSGTDYTLTISSLEPEDFAVYYCQQRSDYPPTFGGGTKVEIKR
The molecule B3 registered an IC50 in [1] of 0.95 nM. Besides, in experiment [2], the “EC50 from the PD-1/PD-L1 luciferase reporter system” value is 5.74 nM. For the same molecule, the IC50 in experiment [3] worked out at 0.88 nM. For the same molecule, in experiment [4], the affinity, expressed as Kd, was 1.65 nM; the koff was 0.000454 s⁻¹; the on-rate (kon) was found to be 275000 M⁻¹ s⁻¹. In [5], it took 0.16 nM to reach a half-maximal effect (EC50).

B4: chimeric antibody 35E6-CH (antibody, human IgG4 S228P, kappa)
heavy: not shown
light: CIVLTQSPASLAVSLGQSVTISCRASESVEYYGTNLMQWYQQKPGQPPKLLIYFASNVASGVPARFSGSGSGTDFSLNIHPVEGDDIARYFCQQSKKVPSTFGGGTKLEIKRTVAAPSVFIFPPSDEQLKSGTASVVCLLNNFYPREAKVQWKVDNALQSGNSQESVTEQDSKDSTYSLSSTLTLSKADYEKHKVYACEVTHQGLSSPVTKSFNRGEC
notes: Murine 35E6 variable regions fused to the IgG4 (S228P) heavy chain constant region and the human kappa constant region
Regarding B4, the IC50 in experiment [6] came out at 1.78 nM; in experiment [1], 1.11 nM; in experiment [10], 1.6 nM; in [3], 0.88 nM; in experiment [11] it was 1.58 ng/mL. In addition, binding in [7] was put at a Kd of 0.416 nM. This molecule came in with a koff in [7] of 0.000123 s⁻¹. The molecule further showed a kon in experiment [7] of 296000 M⁻¹ s⁻¹. Moreover, the EC50 turned out to be 0.198 nM in experiment [8], 0.103 nM in experiment [12] and 0.2 nM in [5]. Besides, the “EC50 (nM), cell activity for blocking PD-1/PD-L1 binding, luciferase reporter gene assay” value (shortened to “EC50 (nM), cell activity”) in [9] stood at 5.53 nM. For the same molecule, in experiment [13], the “fold stronger affinity than the control antibody 1” value was 15.4 times.

B5: chimeric antibody 14A4-CH (antibody, human IgG4 S228P, kappa, V domains shown)
VH: EVQLVESGGGLVKPGGSLKLSCAASGFTFSSYGMSWGRQTPEKRLEWVATISGGGSDTYYPDSVKGRFTISRDNVKNNLYLQMSSLRSEDTALYYCARQYGITWFAYWGQGTLVTVSA
VL: not shown
notes: Murine 14A4 variable regions fused to the IgG4 (S228P) heavy chain constant region and the human kappa constant region
As to B5, the results for the IC50 in experiment [6], in [10] and in experiment [11] were 1.17 nM, 1.12 nM and 0.75 ng/mL, respectively. Moreover, the Kd in experiment [7] worked out at 1.49 nM. Also, the koff in experiment [7] was found to be 0.000206 s⁻¹. This molecule showed a kon in experiment [7] of 138000 M⁻¹ s⁻¹. Further, the EC50 in experiment [8] was found to be 0.171 nM; in experiment [12] it was 0.082 nM. Moreover, the “EC50 (nM), cell activity” value in experiment [9] is 8.4 nM. Further, the “fold stronger affinity than the control antibody 1” value in [13] amounted to 4.3 times.

B6: humanized antibody 91D5-HZ1 (antibody, human IgG4 S228P, kappa, V domains shown)
VH: EVQLVQSGAEVKKPGASVKVSCKASGYTFTDYYMNWVREAPGQGLEWMGEINPKYGDTTYAQKLQGRVTLTVDKSTSTAYMELSSLRSDDTAVYYCAKGIRLFDSWGQGTLVTVSS
VL: DIQLTQSPSSLSASVGDRVTITCRPSGNVHNYFAWYQQKPGKSPKLLVYNAKTLAEGVPSRFSGSGSGTDYTLTISSLQPEDFATYYCHHYYTAPFTFGGGTKVEIKR
On to B6, for which the IC50 in experiment [1] was found to be 1.25 nM. The same molecule showed an IC50 in experiment [3] of 1.19 nM. Besides, in [4], the affinity, expressed as Kd, was 1.89 nM; the koff is 0.00053 s⁻¹; the kon came to 281000 M⁻¹ s⁻¹. For the same molecule, the midpoint of the response in [5], the EC50, lay at 0.39 nM.

B7: humanized antibody 91D5-HZ2 (antibody, human IgG4 S228P, kappa)
heavy: not shown
light: DIQLTQSPSSLSASVGDRVTITCRPSGNVHNYFAWYQQKPGKSPKLLVYNAKTLAEGVPSRFSGSGSGTDYTLTISSLQPEDFATYYCHHYYTAPFTFGGGTKVEIKRTVAAPSVFIFPPSDEQLKSGTASVVCLLNNFYPREAKVQWKVDNALQSGNSQESVTEQDSKDSTYSLSSTLTLSKADYEKHKVYACEVTHQGLSSPVTKSFNRGEC
The molecule B7 yielded an IC50 in [1] of 1.22 nM. The “EC50 from the PD-1/PD-L1 luciferase reporter system” value in experiment [2] turned out to be 4.47 nM. The IC50 in experiment [3] is 1.13 nM. In experiment [4], this molecule gave a Kd of 1.5 nM, a koff of 0.000472 s⁻¹ and a kon of 315000 M⁻¹ s⁻¹. In experiment [5], this molecule showed an EC50 of 0.42 nM.

B8: chimeric antibody 91D5-CH (antibody, human IgG4 S228P, kappa, V domains shown)
VH: EVQLQQSGPELVKPGASVKISCRASGYTFTDYYMNWVKESHGKSLEWIGEINPKYGDTTYNQKFKDKATLTVDKSSSTASVELRSLTSEDSAVYYCAKGIRLFDSWGQGTTVTVSS
VL: DIQLTQSPASLSASVGETVTITCRPSGNVHNYFAWYQQKQGKSPQLLVYNAKTLAEGVPSRFSGSGSGTQYSLKINSLQPEDFGTYYCHHYYTAPFTFGSGTKLEIKR
notes: Murine 91D5 variable regions fused to the IgG4 (S228P) heavy chain constant region and the human kappa constant region
In the case of B8, the IC50 worked out at 1.39 nM in [6]; 1.08 nM in experiment [1]; 1.23 nM in experiment [10]; 0.96 nM in experiment [3]; 0.96 ng/mL in [11]. The Kd in [7] worked out at 0.549 nM; in experiment [4], 0.547 nM. The koff came out at 0.000143 s⁻¹ in experiment [7] and 0.000177 s⁻¹ in experiment [4]. In addition, the kon amounted to 261000 M⁻¹ s⁻¹ in experiment [7] and 324000 M⁻¹ s⁻¹ in experiment [4]. For the same molecule, the values for the EC50 in [8], in [12] and in [5] were 0.235 nM, 0.09 nM and 0.29 nM, respectively. For the same molecule, the “EC50 (nM), cell activity” value in experiment [9] worked out at 4.41 nM. Also, the “fold stronger affinity than the control antibody 1” value in experiment [13] is 11.7 times.

The values above are taken from patent US20240425593A1 (SICHUAN KELUN BIOTECH BIOPHARMACEUTICAL, published 2024).
